# No end group written: not given here.
# Target: A*3301 (Homo sapiens, UniProt P04439, A270S/D185E/E176V/E277Q/E87N/F33T/G231S/H175R/I121M/I218V/I322F/K168Q/K210R/L300P/L318F/M331R/P217A/Q86R/Q94H/R138Q/T323A/T345S/T97I/V358M/Y195H)
# Assay: biochemical
# Assay type: binding
row,Substance,IC50
1,KVGSLQYLK [Peptide 66.0057],> 20 µM
2,KVGPGGYPRRK [Peptide 73.0336],> 20 µM
3,AVDLSFFLK [Peptide 73.0184],> 20 µM
4,KAGPGGYPRK [Peptide 73.0334],> 20 µM
5,AACWRSRRK [Peptide 88.0260],> 20 µM
6,KISEYRHYNK [Peptide 88.0110],> 20 µM

# Target: HLA-A*0201 (HLA-A2.1) (Homo sapiens, UniProt P04439, D140Y/D185E/D98H/E176V/E277Q/G131W/G231S/I119V/I121R/I166T/I218V/L300P/L318F/N151K/N90K/P208A/P217A/Q86G/Q94H/R138H/R169H/T345S)
# Assay: biochemical
# Assay type: binding
Substance,binding to HLA-A2.1 (column 3; no allele head shown for these rows),A2.1,A*0201,IC50,A2.1 Binding
PTGHSYVLVT,0,,,,
QLVFGIDV,,0,,,
FLIIVLVM,,0,,,
FPTTINFTR,,<0.0002,,,
CILESLFRAV,,0.0003,,,
IMPKAGLLI,0.0064,,,,
LVGFLLLKYRA,0.0004,,,,
ALEAQQEAL,,<0.0003,,,
DLVQEKYLEYRQV,0,,,,
KTGFLIIVLV,0.0012,,,,
QIMPKAGLL,,0,,,
KAEMLGSVV,0,,,,
PVTKAEMLESV,0,,,,
DPTGHSYVL,,<0.0002,,,
YLEYGRCRTVI,0.0006,,,,
LIIVLVMIA,0,,,,
YLIMVKBWMV [Peptide 1334.05],,,0.6900,,
VIFSKASSSL,,0,,,
LLIIVLAIIA,<0.0002,,,,
AMBRWGLLV [Peptide 1334.08],,,0.1400,,
PIGHLYIFA,0,,,,
ALEAQQEALGL,0.0001,,,,
BLTIHYNYV [Peptide 1323.08],,,0.0430,,

Substance,binding to HLA-A2.1 (column 3; no allele head shown for these rows),A2.1,A*0201,IC50,A2.1 Binding
YKHCFPEIF,,<0.0002,,,
AVITKKVAD,,<0.0002,,,
SLHCKPEEAL,,0.0002,,,
CILESLFRAVI,0.0030,,,,
VMVTCLGLSV,0.30,,,,
IMPKTGFL,,0.0001,,,
DLVQEKYL,,0,,,
HAPEEEIWE,,<0.0002,,,
GMCCPDLSPV [Peptide 41.0157],,,0.0950,,
SESLQLVFGI,0,,,,
QVMPKTGLL,0,,,,
ATSSSSPLVL,0,,,,
KASESLQLV,0.0009,,,,
SJPPPGTRV [Peptide 1345.03],,,0.0545,,
LLSRDLQQSL,,0.0007,,,
PRKLLTQDL,,<0.0002,,,
QRQPSEGSS,,<0.0002,,,
GLSYDGLLV,0.0047,,,,
DLVGFLLL,,0,,,
CQLAKTCPV [Peptide 1324.07],,,0.0240,,
YLEYGRCRT,0,,,,
GIEVVEVVPI,<0.0002,,,,
LIIVLVMIAM,0.0003,,,,

Substance,binding to HLA-A2.1 (column 3; no allele head shown for these rows),A2.1,A*0201,IC50,A2.1 Binding
SLFRAVITKKV,0.0001,,,,
VTKAEMLESV,0,,,,
RKLLTQDLV,0,,,,
STSCILESL,0.0002,,,,
EIFGKASESL,,0,,,
EIWEELSV,0,,,,
DLESEFQAA,0,,,,
VVEVVPISHL,<0.0002,,,,
KASEYLQLV,0.011,,,,
MIAMEGGHA,0.0005,,,,
EADPTGHSYV,0,,,,
MLGSVVGNWQYFFPV,0.012,,,,
RAVITKKVA,0,,,,
YVKVLEYVI,0.0002,,,,
LVMIAMEGGHA,0.0005,,,,
KTGFLIIVL,0.0006,,,,
AATSSSSPLV,0,,,,
IIVLVMIAM,0.0007,,,,
BLLAKTBPV [Peptide 1329.15],,,0.1100,,
KLLTQDLV,,0.0004,,,
LLKYRAREPV,,0,,,
AALREEEEGV,0,,,,
SREEEGPST,,<0.0002,,,

Substance,binding to HLA-A2.1 (column 3; no allele head shown for these rows),A2.1,A*0201,IC50,A2.1 Binding
IJIGVLVGV [Peptide 1345.01],,,0.0570,,
QIMPKTGFLI,0.0009,,,,
DLESEFQAAI,0,,,,
TLEEVPTA,,0,,,
IVLVMIAM,0.0001,,,,
LLGDNQIM,,0,,,
GLYDGREHTV [Peptide 1586.06],,,,0.144 µM,
ALEAQQEA,,0,,,
CLLAKTCPV [Peptide 1326.01],,,0.0400,,
MSSCGVQGP,,<0.0002,,,
DLESEFQAAISRKMV,0,,,,
PKTGFLIIV,,<0.0002,,,
CLGLSYDGLL,,0,,,
CKPEEALEA,,<0.0002,,,
IIAIEGDCA,0,,,,
VTKAEMLGSV,<0.0002,,,,
RVRFFFPSL,0.0001,,,,
PTGHSYVLV,0,,,,
VQAATSSSS,,<0.0002,,,
KTGLLIIVLA,<0.0002,,,,
VITKKVADL,,<0.0003,,,
AVITKKVADL,,0,,,
EVDPIGHLYI,<0.0002,,,,

Substance,binding to HLA-A2.1 (column 3; no allele head shown for these rows),A2.1,A*0201,IC50,A2.1 Binding
KLPGLLSRDL,,0,,,
QQEALGLVC,,<0.0002,,,
AISRKMVELV,,0,,,
SAFPTTINFT,0,,,,
GIDVKEADPT,0,,,,
EIWEELSVM,0,,,,
AVITKKVA,0,,,,
GIELMEVDPI,<0.0002,,,,
ATSSSSPLV,0.0007,,,,
IMPKAGLLII,0.0015,,,,
LVFGIELJEV [Peptide 1345.04],,,0.7650,,
GKASESLQL,,<0.0002,,,
GLSYDGLL,,0.0001,,,
RAREPVTKA,0,,,,
YMIMVKBWMI [Peptide 1334.04],,,0.2700,,
QIMPKTGFL,,0.0007,,,
11546 (SLLPAIVEL) [Peptide 11546],,,,,0.19
SLSAYIIRV [Peptide 1577.43],,,,0.04 µM,
ITKKVADLV,0,,,,
GREHSAYGE,,<0.0002,,,
ATVGIJIGV [Peptide 1345.02],,,0.1595,,
EALGLVCVQA,0.0005,,,,
PLVLGTLEE,,<0.0002,,,

Substance,binding to HLA-A2.1 (column 3; no allele head shown for these rows),A2.1,A*0201,IC50,A2.1 Binding
EAQQEALGLV,0,,,,
EVVPISHLYI,<0.0002,,,,
YLCNSSCMGGV [Peptide 1323.31],,,0.2300,,
QAALSRKVA,0,,,,
VLGTLEEVPTA,0.0002,,,,
FLIIVLVMI,,0.0005,,,
IIAREGDCA,0,,,,
PQSPQGASA,,<0.0002,,,
GLYDGMEHV [Peptide 1586.08],,,,0.155 µM,
ILESLFRAV,,0.0004,,,
AVITKKVADLV,0,,,,
QLVFGIDVKEA,0.0001,,,,
LIIVLVMI,0.0001,,,,
KLLTQDLVQEKYL,0.0060,,,,
PVTKAEML,,0,,,
QAAISRKMV,0,,,,
GVQGPSLKPA,,0.0001,,,
GVQGPSLKPAM,0,,,,
RCRTVIPHA,,<0.0002,,,
VLGTLEEVPT,0.0004,,,,
VLVTCLGLSYDGL,0.0017,,,,
YIFATCLGL,,0.018,,,
ALNKMFBQV [Peptide 1323.04],,,0.0260,,

Substance,binding to HLA-A2.1 (column 3; no allele head shown for these rows),A2.1,A*0201,IC50,A2.1 Binding
DLQQSLRVL,,0,,,
LVMIAMEGG,,<0.0002,,,
GLLGDNQI,,0,,,
IIVLVMIA,0.0002,,,,
BQLAKTBPV [Peptide 1329.14],,,0.0490,,
SLRVLAAGL,,0.0001,,,
PLVLGTLEEV,,0.0008,,,
YMCNSSCMGGM [Peptide 1323.29],,,0.0075,,
VTCLGLSYD,,<0.0002,,,
VPTAGSTDP,,<0.0002,,,
ELSVMEVYD,,<0.0002,,,
VLEYVIKVSA,0.0002,,,,
VQEKYLEYG,,<0.0002,,,
SLFRAVITKKVADLV,0.0004,,,,
LQLVFGIDV,0.0004,,,,
VITKKVADLV,,0,,,
KAGLLIIVLA,<0.0002,,,,
ILESLFRAVI,,0.0002,,,
EALEAQQEA,0,,,,
LAETSYVKV,0,,,,

# From patent US9340577B2, “HLA binding motifs and peptides and their uses” (priority 1992, dated 2016)
